B1: ADP318 (protein)
chain: MAGRLWPLLLSILTATAVPGPSLRRPSRELDATPRMTIPYEELSGTRHFKGQAQNYSTLLLEEASARLLVGARGALFSLSANDIGDGAHKEIHWEASPEMQSKCHQKGKNNQTECFNHVRFLQRLNSTHLYACGTHAFQPLCAAIDAEAFTLPTSFEEGKEKCPYDPARGFTGLIIDGGLYTATRYEFRSIPDIRRSRHPHSLRTEETPMHWLNDAEFVFSVLVRESKASAVGDDDKVYYFFTERATEEGSGSFTQSRSSHRVARVARVCKGDLGGKKILQKKWTSFLKARLICHIPLYETLRGVCSLDAETSSRTHFYAAFTLSTQWKTLEASAICRYDLAEIQAVFAGPYMEYQDGSRRWGRYEGGVPEPRPGSCITDSLRSQGYNSSQDLPSLVLDFVKLHPLMARPVVPTRGRPLLLKRNIRYTHLTGTPVTTPAGPTYDLLFLGTADGWIHKAVVLGSGMHIIEETQVFRESQSVENLVISLLQHSLYVGAPSGVIQLPLSSCSRYRSCYDCILARDPYCGWDPGTHACAAATTIANRTALIQDIERGNRGCESSRDTGPPPPLKTRSVLRGDDVLLPCDQPSNLARALWLLNGSMGLSDGQGGYRVGVDGLLVTDAQPEHSGNYGCYAEENGLRTLLASYSLTVRPATPAPAPKAPATPGAQLAPDVRL
modifications: bait human Fc-tagged dimer
B2: ADP280 (protein)
chain: TPPNAIVFTYGHLKVADMVKTGVIMNIIGVFCVFLAVNTWGRAIFDLDHFPDWANVTHIET
modifications: also: human Fc-tagged dimer
B3: ADP380 (protein)
chain: VLEEVQQVRRSHQDFSRQREELGQGLQGVEQKVQSLQATFGTFESILRSSQHKQDLTEKAVKQGESEVSRISEVLQKLQNEILKDLSDGIHVVKDARERDFTSLENTVEERLTELTKSINDNIAIFTEVQKRSQKEINDMKAKVASLEESEGNKQDLKALKEAVKEIQTSAKSREWDMEALRSTLQTMESDIYTEVRELVSLKQEQQAFKEAADTERLALQALTEKLLRSEESVSRLPEEIRRLEEELRQLKSDSHGPKEDGGFRHSEAFEALQQKSQGLDSRLQHVEDGVLSMQVASARQTESLESLLSKSQEHEQRLAALQGRLEGLGSSEADQDGLASTVRSLGETQLVLYGDVEELKRSVGELPSTVESLQKVQEQVHTLLSQDQAQAARLPPQDFLDRLSSLDNLKASVSQVEADLKMLRTAVDSLVAYSVKIETNENNLESAKGLLDDLRNDLDRLFVKVEKIHEKV
modifications: bait human Fc-tagged dimer
B4: ADP307 (protein)
chain: MALSVPLLLGLLGLAVAEPAVYFKEQFLDGDGWTSRWIESKHKSDFGKFVLSSGKFYGDEEKDKGLQTSQDARFYALSASFEPFSNKGQTLVVQFTVKHEQNIDCGGGYVKLFPNSLDQTDMHGDSEYNIMFGPDICGPGTKKVHVIFNYKGKNVLINKDIRCKDDEFTHLYTLIVRPDNTYEVKIDNSQVESGSLEDDWDFLPPKKIKDPDASKPEDWDERAKIDDPTDSKPEDWDKPEHIPDPDAKKPEDWDEEMDGEWEPPVIQNPEYKGEWKPRQIDNPDYKGTWIHPEIDNPEYSPDPSIYAYDNFGVLGLDLWQVKSGTIFDNFLITNDEAYAEEFGNETWGVTKAAEKQMKDKQDEEQRLKEEEEDKKRKEEEEAEDKEDDEDKDEDEEDEEDKEEDEEEDVPGQAKDEL
modifications: bait human Fc-tagged dimer
B5: ADP373 (protein)
chain: MAKASCLPLGFIVFLPAVLLLVAPPLPAADAAHEFTVYRMQQYDLQGQPYGTRNAVLNTEARTMAAEVLSRRCVLMRLLDFSYEQYQKALRQSAGAVVIILPRAMAAVPQDVVRQFMEIEPEMLAMETAVPVYFAVEDEALLSIYKQTQAASASQGSASAAEVLLRTATANGFQMVTSGVQSKAVSDWLIASVEGRLTGLGGEDLPTIVIVAHYDAFGVAPWLSLGADSNGSGVSVLLELARLFSRLYTYKRTHAAYNLLFFASGGGKFNYQGTKRWLEDNLDHTDSSLLQDNVAFVLCLDTVGRGSSLHLHVSKPPREGTLQHAFLRELETVAAHQFPEVRFSMVHKRINLAEDVLAWEHERFAIRRLPAFTLSHLESHRDGQRSSIMDVRSRVDSKTLTRNTRIIAEALTRVIYNLTEKGTPPDMPVFTEQMQIQQEQLDSVMDWLTNQPRAAQLVDKDSTFLSTLEHHLSRYLKDVKQHHVKADKRDPEFVFYDQLKQVMNAYRVKP
modifications: bait human Fc-tagged dimer
B6: ADP107 (protein)
chain: MGTKAQVERKLLCLFILAILLCSLALGSVTVHSSEPEVRIPENNPVKLSCAYSGFSSPRVEWKFDQGDTTRLVCYNNKITASYEDRVTFLPTGITFKSVTREDTGTYTCMVSEEGGNSYGEVKVKLIVLVPPSKPTVNIPSSATIGNRAVLTCSEQDGSPPSEYTWFKDGIVMPTNPKSTRAFSNSSYVLNPTTGELVFDPLSASDTGEYSCEARNGYGTPMTSNAVRMEAVERNVGV
modifications: bait human Fc-tagged dimer
B7: ADP098 (protein)
chain: RELPAQKWWHTGALYRIGDLQAFQGHGAGNLAGLKGRLDYLSSLKVKGLVLGPIHKNQKDDVAQTDLLQIDPNFGSKEDFDSLLQSAKKKSIRVILDLTPNYRGENSWFSTQVDTVATKVKDALEFWLQAGVDGFQVRDIENLKDASSFLAEWQNITKGFSEDRLLIAGTNSSDLQQILSLLESNKDLLLTSSYLSDSGSTGEHTKSLVTQYLNATGNRWCSWSLSQARLLTSFLPAQLLRLYQLMLFTLPGTPVFSYGDEIGLDAAALPGQPMEAPVMLWDESSFPDIPGAVSANMTVKGQSEDPGSLLSLFRRLSDQRSKERSLLHGDFHAFSAGPGLFSYIRHWDQNERFLVVLNFGDVGLSAGLQASDLPASASLPAKADLLLSTQPGREEGSPLELERLKLEPHEGLLLRFPYAA
modifications: bait human Fc-tagged dimer
B8: ADP339 (protein)
chain: MASPFLVLAIGTCLTNSLVPEKEKDPKYWRDQAQETLKYALELQKLNTNVAKNVIMFLGDGMGVSTVTAARILKGQLHHNPGEETRLEMDKFPFVALSKTYNTNAQVPDSAGTATAYLCGVKANEGTVGVSAATERSRCNTTQGNEVTSILRWAKDAGKSVGIVTTTRVNHATPSAAYAHSADRDWYSDNEMPPEALSQGCKDIAYQLMHNIRDIDVIMGGGRKYMYPKNKTDVEYESDEKARGTRLDGLDLVDTWKSFKPRYKHSHFIWNRTELLTLDPHNVDYLLGLFEPGDMQYELNRNNVTDPSLSEMVVVAIQILRKNPKGFFLLVEGGRIDHGHHEGKAKQALHEAVEMDRAIGQAGSLTSSEDTLTVVTADHSHVFTFGGYTPRGNSIFGLAPMLSDTDKKPFTAILYGNGPGYKVVGGERENVSMVDYAHNNYQAQSAVPLRHETHGGEDVAVFSKGPMAHLLHGVHEQNYVPHVMAYAACIGANLGHCAPASS
modifications: bait human Fc-tagged dimer
B9: ADP144 (protein)
chain: MELRARGWWLLCAAAALVACARGDPASKSRSCGEVRQIYGAKGFSLSDVPQAEISGEHLRICPQGYTCCTSEMEENLANRSHAELETALRDSSRVLQAMLATQLRSFDDHFQHLLNDSERTLQATFPGAFGELYTQNARAFRDLYSELRLYYRGANLHLEETLAEFWARLLERLFKQLHPQLLLPDDYLDCLGKQAEALRPFGEAPRELRLRATRAFVAARSFVQGLGVASDVVRKVAQVPLGPECSRAVMKLVYCAHCLGVPGARPCPDYCRNVLKGCLANQADLDAEWRNLLDSMVLITDKFWGTSGVESVIGSVHTWLAEAINALQDNRDTLTAKVIQGCGNPKVNPQGPGPEEKRRRGKLAPRERPPSGTLEKLVSEAKAQLRDVQDFWISLPGTLCSEKMALSTASDDRCWNGMARGRYLPEVMGDGLANQINNPEVEVDITKPDMTIRQQIMQLKIMTNRLRSAYNGNDVDFQDASDDGSGSGSGDGCLDDLCSRKVSRKSSSSRTPLTHALPGLSEQEGQKTSAAS
modifications: bait human Fc-tagged dimer

Molecular target: Circumsporozoite protein (CSP) (Plasmodium falciparum (isolate 3D7), UniProt Q7K740)
Sequence (Q7K740 19-374): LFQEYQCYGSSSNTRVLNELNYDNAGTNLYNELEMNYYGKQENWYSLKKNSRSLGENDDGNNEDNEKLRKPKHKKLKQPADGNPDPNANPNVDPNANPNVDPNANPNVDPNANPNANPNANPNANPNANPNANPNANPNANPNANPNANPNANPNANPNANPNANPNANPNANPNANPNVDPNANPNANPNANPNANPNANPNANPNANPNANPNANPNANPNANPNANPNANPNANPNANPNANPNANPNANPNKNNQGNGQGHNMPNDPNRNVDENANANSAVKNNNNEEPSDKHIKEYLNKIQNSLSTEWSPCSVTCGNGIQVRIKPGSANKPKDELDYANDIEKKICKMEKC
Assay: AVEXIS screen signal:noise (double-corrected)

Q: With B1 as the binder, how does the binding score read?
A: 3.59

Q: How did the binding score turn out when B2 was run?
A: 0.749

Q: For B3, which binding score is on record?
A: 0.68

Q: With B4 as the binder, how does the binding score read?
A: 1.67

Q: With B5 as the binder, how does the binding score read?
A: 1.26

Q: How did the binding score turn out when B6 was run?
A: 0.991

Q: How did the binding score turn out when B7 was run?
A: 1.12

Q: For B8, which binding score is on record?
A: 1.02

Q: B9 was tested. Which binding score did it give?
A: 0.883

Source: paper PMC11098746 (2024)
